The target in test [1] is PAC-1. Briefly: PAC-1 binding to transfected HEK293FT cells (normalized MFI). The settings on record: 1 mM Ca/Mg; parent: est. 4; read off a plot.
Test [2] addresses mAb m24. Briefly: mAb binding to transfected HEK293FT cells (MFI normalized to integrin expression). The settings on record: read off a plot.
Test [3] deals with mAb KIM127. Described as above. The settings on record: read off a plot.
In test [4] the target is human ICAM-1 with a C-terminal Fc tag of human IgG1 (UniProt P05362). Briefly: ICAM-1 binding to transfected HEK293FT cells (MFI normalized to integrin expression). The settings on record: 1 mM CaCl2 plus 1 mM MgCl2 (Ca/Mg), read off a plot.
Where [5] appears, read: 1 mM CaCl2 plus 1 mM MnCl2 (Ca/Mn), parent: est. 230.
[6] abbreviates: 1 mM CaCl2 plus 1 mM MnCl2 (Ca/Mn), parent: est. 200.

19 substances from article PMC8569584 can be followed below.

For the substance “αIIb WT + β3 WT αIIb:L959C; αIIb:K994C; β3:P688C”, the response (normalized MFI) in test [1] came out at 3.

Take “integrin αLβ2 with the αL-GFFKR to GAAKR mutation and wild-type β2 (from UniProt P20701;P05107) β2:V699P”: the response (normalized MFI) in test [2] (setting [5]) is 220; in test [3] (1 mM Ca/Mg, parent: est. 80) it was 91; in test [3] (setting [6]), 190.

For “αIIb WT + β3 WT αIIb:L959C; αIIb:F993C; β3:P688C”, the response (normalized MFI) in test [1] amounted to 3.

With αIIb WT + β3 WT αIIb:L959C; αIIb:K994C, the response (normalized MFI) in test [1] stood at 25.

For the substance “αIIb WT + β3 WT αIIb:L959C; αIIb:G991C; β3:P688C”, the response (normalized MFI) in test [1] worked out at 4.

As for “integrin αLβ2 with the αL-GFFKR to GAAKR mutation and wild-type β2 (from UniProt P20701;P05107) β2:L696P”, the response (normalized MFI) in test [2] (1 mM Ca/Mg, parent: est. 98) is 75; in test [2] (setting [5]), 260; in test [3] (1 mM Ca/Mg, parent: est. 80) it was 52; in test [3] (setting [6]) it was 180.

As to “integrin αLβ2 with the αL-GFFKR to GAAKR mutation and wild-type β2 (from UniProt P20701;P05107) β2:I690P”, the response (normalized MFI) in test [2] (1 mM Ca/Mg, parent: est. 98) was 67; in test [2] (setting [5]) it was 200; in test [3] (1 mM Ca/Mg, parent: est. 80) it was 60; in test [3] (setting [6]), 170.

As for αIIb WT + β3 WT αIIb:L959C; αIIb:F993C, in test [1], the response (normalized MFI) was 37.

Regarding “integrin αLβ2 with the αL-GFFKR to GAAKR mutation and wild-type β2 (from UniProt P20701;P05107) β2:V691P”, the response (normalized MFI) in test [2] (1 mM Ca/Mg, parent: est. 98) came to 30; in test [2] (setting [5]), 180; in test [3] (1 mM Ca/Mg, parent: est. 80), 31; in test [3] (setting [6]), 120.

Turning to αL/β2 WT αL:FFAA (GFFKR to GAAKR), the response (normalized MFI) in test [2] (1 mM CaCl2 plus 1 mM MnCl2 (Ca/Mn), parent: est. 58) turned out to be 230; in test [3] (1 mM Ca/Mg, parent: est. 18) it was 80; in test [3] (1 mM CaCl2 plus 1 mM MnCl2 (Ca/Mn), parent: est. 44), 200; in test [4] (parent: est. 5), 60.

As for αIIb WT + β3 WT β3:P688C, the response (normalized MFI) in test [1] amounted to 6.

With “αIIb WT + β3 WT αIIb:L959C; αIIb:R995C; β3:P688C”, the response (normalized MFI) in test [1] came to 11.

Turning to “integrin αLβ2 with the αL-GFFKR to GAAKR mutation and wild-type β2 (from UniProt P20701;P05107) β2:L692P”, the response (normalized MFI) is 160 in test [2] (1 mM Ca/Mg, parent: est. 98); 210 in test [2] (setting [5]); 120 in test [3] (1 mM Ca/Mg, parent: est. 80); 210 in test [3] (setting [6]).

On to αIIb WT + β3 WT αIIb:L959C; αIIb:G991C, for which the response (normalized MFI) in test [1] was 150.

As for αIIb WT + β3 WT αIIb:L959C; αIIb:R995C, the response (normalized MFI) in test [1] is 110.

Take αIIb WT + β3 WT αIIb:L959C; αIIb:F992C: the response (normalized MFI) in test [1] came to 34.

“integrin αLβ2 with the αL-GFFKR to GAAKR mutation and wild-type β2 (from UniProt P20701;P05107) β2:I693P”: the response (normalized MFI) came to 33 in test [2] (1 mM Ca/Mg, parent: est. 98); 140 in test [2] (setting [5]); 30 in test [3] (1 mM Ca/Mg, parent: est. 80); 110 in test [3] (setting [6]).

Take “integrin αLβ2 with the αL-GFFKR to GAAKR mutation and wild-type β2 (from UniProt P20701;P05107) β2:I698P”: the response (normalized MFI) in test [4] (parent: est. 60) came out at 84.

Consider “αIIb WT + β3 WT αIIb:L959C; αIIb:F992C; β3:P688C”, for which the response (normalized MFI) in test [1] was found to be 3.
